# According to article PMC3601014, “Blood-brain barrier transport of amyloid beta peptides in efflux pump knock-out animals evaluated by in vivo optical imaging” (Fluids and Barriers of the CNS, 2013):
# Assays:
# Abcb1 and Abcg2 = system: Abcb1 and Abcg2; design: method as in PMID 22391220; details: in situ brain perfusion, Abcb1-deficient mice; cited from earlier work
# [1] = Western blot analysis of Aβ peptide solution (monomers/dimers); format: physicochemical; details: dissolved in 10 mM NaOH, HEPES to pH 8.0, data not shown
# Experimental: Aβ1-40 peptide used in this study for optical imaging/tracking is the most abundant Aβ peptide found in the cerebral vasculature and is more soluble than Aβ1-42 peptide. Aβ1-40 peptides (1 mg/vial) were dissolved in 250 μL of 10 mM NaOH, and then 12.5 μL of 1 M HEPES [4-(2-hydroxyethyl)-1-piperazineethanesulfonic acid] was added to bring the pH to 8.0. The peptides were divided into 2 tubes (0.5 mg/tube) and kept at −80°C. Because Aβ peptides are commonly present as beta sheet structure in solution, Western blot analyses of the mixtures were performed, and the majority of the peptides (>95%) were monomers with a small proportion of dimers (data not shown). Aβ1-40 or scrambled Aβ40-1 peptides (0.5 mg, molecular weight 4329.86D) were labeled with the near-infrared fluorescent dye Cy5.5 (molecular weight 1128.42D) using the labeling kit (Cy5.5™ Mono NHS ester) as per manufacturer’s instructions.
# [2] = system: mdr-1 P-glycoprotein/Abcb1; experiment: Time-domain in vivo optical imaging of head ROI, Abcb1-KO mice; design: species or system mouse; details: i.v. injection, imaged 2–8 h, data not shown
# Excerpt: (§1) The experiments with animals have been approved by the Animal Care Committee of the National Research Council of Canada - Ottawa (NRC). Wild-type (wt), mdr-1a/b (Abcb1a/b) knockout (Abcb1^KO), and Abcg2^-KO mice of FVB background were purchased from the Taconic Farms Inc (New York, USA) and maintained in the NRC Animal Facility at Ottawa. Pairs of adult wild-type mice and Abcb1^-KO and pairs of adult wild-type and Abcg2^-KO mice of the same body weight and same sex were matched for injections and imaging experiments. After initial testing of fluorescence signal with various injected doses of Cy5.5-labeld Aβ peptides, the optimal dose selected for the experiments was 100 μg of labelled peptide in 200-μL volume. […]
# (§2) Briefly, each animal was positioned on a platform (dorsal side facing up) that was then placed on a heated plate (at 36°C) in the imaging system. […] The fluorescence emission at 700 nm was collected by a highly sensitive photomultiplier tube offset by 3 mm for diffuse optical topography reconstruction. […] A pulsed light source and time-resolved detection allows the system to resolve the nanosecond timescale of fluorescence emission. […] The data were thus recorded as TPSF and the images were reconstructed as fluorescence concentration maps. […] Brains were then extracted and scanned ex-vivo for fluorescence concentration
# [3] = Time-domain in vivo optical imaging of head ROI, wild-type mice; design: species or system mouse; details: i.v. injection, imaged 2–8 h; wild-type and KO mice
# Excerpt: as §1, §2
# [4] = no reference given; cited from earlier work
# Excerpt: To enable prospective in vivo optical imaging of the distribution of peripherally-injected Aβ peptides, the peptides were labeled with the near-infrared fluorescent dye Cy5.5. Since the principal aim of the present study was to monitor brain distribution of Cy5.5-labeled Aβ peptide in mice lacking major ABC transporters, the fluorescent tracer itself should not be the substrate for these transporters. To compare the permeability of BBB for Cy5.5 in wild-type, Abcb1^-KO and Abcg2^-KO animals, equal amounts of Cy5.5 tracer were intravenously injected into two pairs of wild-type and knockout mice ...
# Abcg2 = biological target: T1, Abcg2 (Mus musculus, UniProt Q7TMS5); experiment: Time-domain in vivo optical imaging of head ROI, Abcg2-KO mice; details: i.v. injection, imaged 2–8 h, 4 animals per group
# T1 construct: five pairs of adult wild-type and Abcg2^-KO mice were intravenously injected via the tail vein; tissue Taconic Farms Inc; host or cells: living FVB mice (head ROI / brain, blood-brain barrier)
# T1 sequence (Q7TMS5 1-657): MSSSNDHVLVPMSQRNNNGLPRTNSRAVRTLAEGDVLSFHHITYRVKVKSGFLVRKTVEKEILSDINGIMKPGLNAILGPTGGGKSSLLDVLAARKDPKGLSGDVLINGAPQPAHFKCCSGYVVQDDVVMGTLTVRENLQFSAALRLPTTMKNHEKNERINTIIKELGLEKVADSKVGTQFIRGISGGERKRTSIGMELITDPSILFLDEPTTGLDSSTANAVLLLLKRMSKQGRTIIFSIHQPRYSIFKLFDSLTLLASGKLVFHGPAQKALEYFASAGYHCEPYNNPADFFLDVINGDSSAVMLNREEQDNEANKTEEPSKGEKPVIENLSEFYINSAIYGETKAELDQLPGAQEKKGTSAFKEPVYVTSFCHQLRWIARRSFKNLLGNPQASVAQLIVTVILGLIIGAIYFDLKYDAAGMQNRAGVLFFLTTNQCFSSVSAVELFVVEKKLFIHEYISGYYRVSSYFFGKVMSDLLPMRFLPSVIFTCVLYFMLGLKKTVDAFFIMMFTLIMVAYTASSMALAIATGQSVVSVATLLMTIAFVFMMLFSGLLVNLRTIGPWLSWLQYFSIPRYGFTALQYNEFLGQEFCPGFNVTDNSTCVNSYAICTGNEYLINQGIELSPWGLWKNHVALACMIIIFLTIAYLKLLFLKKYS
# Excerpt: as §1, §2
# [5] = Aβ immunohistochemistry in brain sections (6E10 antibody); format: in vivo, mouse; details: 100 μg i.v., brains collected 8 h post-injection; wild-type and Abcg2-KO mice; 3 animals per group
# Excerpt: The sections were also counter-stained with fluorescein-labeled lectin, Ulex europeaus agglutinin (UEA-I), as described to visualize cerebral vessels.
# [6] = Aβ-Cy5.5 conjugate stability in serum; format: in vitro ADME, bovine; details: 1:8 v/v, ~1 μg Aβ, 37°C, 0–8 h, Tricine-SDS-PAGE, optical imaging and 6E10 immunoblot
# Experimental: To evaluate Aβ-Cy5.5 conjugate stability in serum, the labeled peptide (5-μL volume containing ~1 μg Aβ) was added to either 35 μL of (non-inactivated) FBS or 35 μL of 1 × PBS (1: 8 dilution) and incubated at 37°C for 0, 0.5, 1, 2, 4, 6, and 8 hours, respectively. The peptides (4 μL) from each of the above reactions (40 μL/reaction) were added to the loading buffer, boiled for 10 min, and resolved on a 16% Tricine-SDS-PAGE as described. The tricine-SDS-PAGE gel was scanned in the optical imager; the peptides in the gel were then transferred to a PVDF membrane for immuno-blotting. A mouse monoclonal anti-human Aβ antibody 6E10 (1:1000 dilution) and the secondary HRP-conjugated donkey anti-mouse IgG antibody (1:5000 dilution) were used for immunodetection. ECL plus detection reagents were applied to the blots and the blots were exposed to autoradiography films.
# [7] = Serial whole-body imaging (biodistribution and systemic elimination); format: in vivo, mouse; details: 100 μg i.v.; wild-type, Abcg2-KO and Abcb1-KO mice
# Experimental: The animals were anesthetized with inhaled isoflurane (4% for induction and 1.5% for maintenance) and the fur was shaved from the head and dorsal side of the body. The labeled peptides (100 μg) or Cy5.5 free dye (~78 μg) were injected intravenously (i.v.) via the tail vein. The animals were imaged at 2, 4, 6, and 8 h post-injection using the time-domain optical imager eXplore Optix 670 (GE Healthcare Systems/ART Inc). The imaging protocols were described in detail previously.
# Briefly, each animal was positioned on a platform (dorsal side facing up) that was then placed on a heated plate (at 36°C) in the imaging system. The whole-body scan or selected region of interest (ROI) scan (i.e., head) was performed as described. […] The fluorescence emission at 700 nm was collected by a highly sensitive photomultiplier tube offset by 3 mm for diffuse optical topography reconstruction. […] A pulsed light source and time-resolved detection allows the system to resolve the nanosecond timescale of fluorescence emission. […] The data were thus recorded as TPSF and the images were reconstructed as fluorescence concentration maps. Average fluorescence concentration data from ROI placed around the heads were subsequently analyzed using the software ART Optix Optiview (ART Inc., Montreal, QC, Canada). […] Brains were then extracted and scanned ex-vivo for fluorescence concentration […]
# [8] = in vivo, cited from earlier work
# Experimental: Head ROI imaging protocols were initiated 2 hours after tracer injection, allowing 3–4 circulation half-lives; therefore, measured head fluorescence concentration was primarily indicative of the brain-accumulated/retained tracer, with small contribution of circulating tracer.
compound,measurement,setting,value
COc1cc2c(cc1OC)CN(CCc1ccc(NC(=O)c3cccc4c(=O)c5cccc(OC)c5[nH]c34)cc1)CC2 [GF120918],Effect on brain uptake of [3H]-Aβ1-40,Abcb1 and Abcg2,strongly enhanced
Aβ1-40: Synthetic human Aβ1-40 peptide purchased from Biopeptides Co.,Proportion of peptide present as monomers,[1],> 95%
Cy5.5,"Head ROI fluorescence, wild-type versus Abcb1-KO",[2],not different
same,Fluorescence in the head ROI after circulation time,[3],close to background
same,Plasma half-life,[4],about 30 min
same,Time in which majority of the dye is cleared from the body,[4],2 h
same,"Head ROI fluorescence, wild-type versus Abcg2-KO",Abcg2,not different
Cy5.5-labeled Aβ1-40: Synthetic human Aβ1-40 peptide labeled with the near-infrared fluorescent dye Cy5.5 (Mono NHS ester),Immunoreactive Aβ in brain sections,[5],detected
same,Stability of conjugate in PBS,[6]; 1 × PBS,no appreciable reductions of intact Aβ peptide bands
same,Stability of conjugate in serum ex vivo,[6]; non-inactivated FBS,mostly intact in the serum ex vivo up to 8 hours
same,Whole-body elimination of fluorescence,[7],almost complete disappearance of fluorescence from the body between 2 h and 4 h after injection
"[^123I]-Aβ1-40: intracerebrally microinfused 123I-labeled Aβ1-40, literature SPECT study",Brain clearance short t1/2 (bi-phasic),[8]; monkey,1.1 ~ 2.7 hours
"[^125I]-Aβ1-40: brain-injected 125I-labeled Aβ1-40 peptide, literature",Brain clearance t1/2,[8],25 min
